Experiment [1] addresses T1, Recombinant mouse MMR (R&D systems) (mouse, UniProt Q61830 20-1388).
T1 construct: Bought recombinant extracellular portion of mouse MMR with a C-terminal His tag; It was immobilized on the CM5 chip for SPR and coated on plates for PE-ELISA; The SPR methods say only 'MMR'; also called mMMR; recombinant MMR
T1 sequence: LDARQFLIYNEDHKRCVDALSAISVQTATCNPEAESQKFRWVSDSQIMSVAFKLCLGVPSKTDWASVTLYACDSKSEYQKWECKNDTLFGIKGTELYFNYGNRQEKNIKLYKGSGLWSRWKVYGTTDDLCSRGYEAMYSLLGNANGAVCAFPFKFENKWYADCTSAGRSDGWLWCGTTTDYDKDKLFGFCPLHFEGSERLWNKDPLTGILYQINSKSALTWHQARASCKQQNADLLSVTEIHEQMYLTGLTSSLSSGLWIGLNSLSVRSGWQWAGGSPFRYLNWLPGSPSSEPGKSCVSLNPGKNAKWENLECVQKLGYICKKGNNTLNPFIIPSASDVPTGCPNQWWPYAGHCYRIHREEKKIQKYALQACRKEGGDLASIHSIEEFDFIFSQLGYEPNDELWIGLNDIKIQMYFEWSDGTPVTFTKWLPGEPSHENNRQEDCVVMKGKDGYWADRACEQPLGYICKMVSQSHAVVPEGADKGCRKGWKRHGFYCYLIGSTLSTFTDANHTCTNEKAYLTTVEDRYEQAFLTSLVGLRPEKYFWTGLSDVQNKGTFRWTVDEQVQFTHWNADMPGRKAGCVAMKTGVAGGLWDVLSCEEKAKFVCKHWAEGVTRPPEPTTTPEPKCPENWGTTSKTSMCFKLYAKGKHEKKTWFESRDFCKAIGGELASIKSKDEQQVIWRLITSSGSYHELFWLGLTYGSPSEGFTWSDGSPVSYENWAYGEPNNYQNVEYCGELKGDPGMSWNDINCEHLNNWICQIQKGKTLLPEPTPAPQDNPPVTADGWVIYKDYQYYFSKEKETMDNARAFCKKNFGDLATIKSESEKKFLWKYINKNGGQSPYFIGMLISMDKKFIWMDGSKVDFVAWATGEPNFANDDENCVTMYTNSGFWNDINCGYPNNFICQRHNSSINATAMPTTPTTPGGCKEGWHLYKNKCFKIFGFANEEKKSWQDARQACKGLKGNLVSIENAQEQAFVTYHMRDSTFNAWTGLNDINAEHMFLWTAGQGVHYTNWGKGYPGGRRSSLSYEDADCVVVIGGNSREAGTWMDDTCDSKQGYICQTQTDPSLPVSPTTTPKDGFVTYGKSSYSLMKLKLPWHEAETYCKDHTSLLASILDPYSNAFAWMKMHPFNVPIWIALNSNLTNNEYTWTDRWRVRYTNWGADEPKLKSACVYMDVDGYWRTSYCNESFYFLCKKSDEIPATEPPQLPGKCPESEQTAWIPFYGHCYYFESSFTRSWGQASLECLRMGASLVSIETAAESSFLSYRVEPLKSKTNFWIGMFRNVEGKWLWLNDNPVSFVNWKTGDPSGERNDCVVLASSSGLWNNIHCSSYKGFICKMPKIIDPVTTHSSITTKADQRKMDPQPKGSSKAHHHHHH
In words: SPR on immobilized recombinant MMR. As for the experimental part: (§1) Affinity analysis was performed using a BIAcore T100 (GE Healthcare) with HEPES-buffered saline running buffer (10 mM HEPES with 0.15 M NaCl, 3.4 mM EDTA and 0.005% surfactant P20 at pH 7.4). MRR was immobilized on a CM5 chip in acetate buffer 50 mM (pH 5.0), resulting in 2100 RU MMR coated on the chip. A second channel on the same chip was activated/deactivated in a similar way and served as a negative control. The MMR Nanobodies were used as analytes in eleven different concentrations, ranging from 1 to 2000 nM, at a flow rate of […]. Glycine-HCl 50 mM (pH 2.0) was used for elution. The kinetic and equilibrium parameters (kd, ka and KD) values were calculated from the combined sensogram of all concentrations using BIAcore T100 evaluation software 2.02 (GE Healthcare).
Nanobodies (Nb) were raised against the recombinant extracellular portion of MMR (α-MMR Nb), as described in the Materials and Methods (see also Example 9; Table 4). The binding characteristics of the monovalent anti-MMR nanobodies were compared using surface Plasmon resonance measurements (Table 5). […] Further, bivalent nanobodies were constructed by linking two anti-MMR nanobody 1 entities using (G₄S)₃ ([…]; SEQ ID NO:121), llama IgG2 hinge ([…]; SEQ ID NO:122) or human IgA hinge ([…] SEQ ID NO:123) linkers. […] As a negative control nanobody in all experiments, we consistently used α-BCII10 Nb, which is a binder of the β-lactamase BCII enzyme of Bacillus cereus.

Experiment [2] deals with T1, Recombinant mouse MMR (R&D systems). Put plainly: SPR, BIAcore T100, MMR immobilized on CM5 chip, bivalent Nb as analyte. As for the experimental part: as §1
Background: SPR reads the build-up and loss of mass on a sensor chip optically.

In experiment [3] the target is T2, Recombinant human MMR (R&D systems) (human, UniProt P22897 19-1383).
T2 construct: Bought protein (R&D Systems #2534) coated on ELISA plates; also called hMMR; MRC1
T2 sequence: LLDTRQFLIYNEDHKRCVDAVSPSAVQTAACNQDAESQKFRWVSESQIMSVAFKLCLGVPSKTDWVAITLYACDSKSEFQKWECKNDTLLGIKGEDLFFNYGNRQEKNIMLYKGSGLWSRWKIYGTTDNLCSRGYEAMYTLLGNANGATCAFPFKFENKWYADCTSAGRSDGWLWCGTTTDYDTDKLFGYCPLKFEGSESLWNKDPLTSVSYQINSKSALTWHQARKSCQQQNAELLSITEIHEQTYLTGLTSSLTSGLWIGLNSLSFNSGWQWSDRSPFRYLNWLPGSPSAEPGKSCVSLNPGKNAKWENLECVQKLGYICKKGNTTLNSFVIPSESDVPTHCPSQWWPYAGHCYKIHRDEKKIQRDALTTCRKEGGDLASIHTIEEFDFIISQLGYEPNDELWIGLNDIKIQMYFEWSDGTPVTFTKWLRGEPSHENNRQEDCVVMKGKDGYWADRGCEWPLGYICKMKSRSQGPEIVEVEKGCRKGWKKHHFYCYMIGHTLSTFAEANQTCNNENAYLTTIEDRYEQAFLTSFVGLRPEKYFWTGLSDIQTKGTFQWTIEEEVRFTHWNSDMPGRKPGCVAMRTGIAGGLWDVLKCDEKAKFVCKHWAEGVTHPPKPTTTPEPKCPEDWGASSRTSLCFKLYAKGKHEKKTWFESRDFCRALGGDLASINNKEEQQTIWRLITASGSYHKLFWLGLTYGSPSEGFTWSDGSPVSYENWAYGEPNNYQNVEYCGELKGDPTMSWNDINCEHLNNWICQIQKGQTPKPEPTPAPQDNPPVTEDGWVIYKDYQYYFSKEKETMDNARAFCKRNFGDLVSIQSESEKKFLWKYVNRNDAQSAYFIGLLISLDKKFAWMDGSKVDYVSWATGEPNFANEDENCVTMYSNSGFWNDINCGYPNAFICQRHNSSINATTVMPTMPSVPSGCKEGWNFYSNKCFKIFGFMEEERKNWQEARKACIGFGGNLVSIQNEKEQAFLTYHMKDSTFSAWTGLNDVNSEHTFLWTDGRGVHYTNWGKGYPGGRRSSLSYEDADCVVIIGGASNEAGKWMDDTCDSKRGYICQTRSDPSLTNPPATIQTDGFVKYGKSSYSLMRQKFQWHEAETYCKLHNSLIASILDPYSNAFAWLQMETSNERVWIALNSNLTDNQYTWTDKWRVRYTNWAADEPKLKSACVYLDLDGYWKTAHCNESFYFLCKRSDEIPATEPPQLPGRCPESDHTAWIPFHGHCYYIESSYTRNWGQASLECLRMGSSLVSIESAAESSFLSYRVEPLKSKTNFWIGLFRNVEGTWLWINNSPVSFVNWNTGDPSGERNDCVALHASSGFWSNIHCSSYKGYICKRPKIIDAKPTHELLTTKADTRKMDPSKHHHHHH
Put plainly: PE-ELISA, periplasmic extract on coated human MMR, OD405 at least 3x over milk-blocking proteins. On the technique in general: ELISA stands for enzyme-linked immunosorbent assay.

The target of experiment [4] is T1, Recombinant mouse MMR (R&D systems). In words: SPR, BIAcore T100, MMR immobilized on CM5 chip, Nb as analyte. As for the experimental part:
as §1
Nanobodies (Nb) were raised against the recombinant extracellular portion of MMR (α-MMR Nb), as described in the Materials and Methods (see also Example 9; Table 4). The binding characteristics of the monovalent anti-MMR nanobodies were compared using surface Plasmon resonance measurements (Table 5). […] Further, bivalent nanobodies were constructed by linking two anti-MMR nanobody 1 entities using (G₄S)₃ ([…]; SEQ ID NO:121), llama IgG2 hinge ([…]; SEQ ID NO:122) or human IgA hinge ([…] SEQ ID NO:123) linkers. […]

B1: bivalent anti-MMR Nanobody 1 with human IgA hinge linker (VHH)
chain: QVQLQESGGGLVQPGGSLRLSCAASGNIFSINAIGWYRQAPGKQRELVATITLSGSTNYADSVKGRFSISRDNAKNTVYLQMNSLKPEDTAVYYCNANTYSDSDVYGYWGQGTQVTVSSSPSTPPTPSPSTPPASQVQLQESGGGLVQPGGSLRLSCAASGNIFSINAIGWYRQAPGKQRELVATITLSGSTNYADSVKGRFSISRDNAKNTVYLQMNSLKPEDTAVYYCNANTYSDSDVYGYWGQGTQVTVSSHHHHHH
notes: Two copies of Nb clone 1 in one chain joined by the human IgA hinge linker, with a C-terminal His tag; also called biv MMR linker 3 IgA; MMR biv IgA
On to B1, for which, in experiment [1], the “fold higher avidity compared to the monovalent clone 1 nanobody” value (“fold higher avidity” below) was 5 fold. Moreover, the Kd in experiment [2] amounted to 4.69 nM.

B2: NbhMMRm5.38 (VHH)
VHH: QVQLQESGGGLVQAGGSLRLSCAASGFTDDDYDIGWFRQAPGKEREGVSCISSSDGSTYYADSVKGRFTISSDNAKNTVYLQMNSLKPEDTAVYYCAADFFRWDSGSYYVRGCRHATYDYWGQGTQVTVSS
notes: Tested as a periplasmic extract in PE-ELISA
For the molecule B2, the binding result in experiment [3] is on record as “binds”.

B3: NbhMMRm12.6 (VHH)
VHH: QVQLQESGGGLVQPGGSLRLSCVVSGSFLSINHMGWYRQVSGEQRELVAAITSGGSTNYADSVKGRFTISRDSAKNTVYLQMNSLKPEDTAVYYCNADALTMLPPFDFWGQGTQVTVSS
notes: as for B2
As to B3, in experiment [3], the binding result is listed as “binds”.

B4: NbhMMRm16.95 (VHH)
VHH: QVQLQESGGGLVQPGGSLGLSCAASGRIASISAMGWYRQAPGKQRELVAAITGSGRTNYADSVKGRFTISRDNAKNTVYLQMNSLKPEDTAVYYCNLLMVDYGLGLGTDYWGQGTQVTVSS
notes: as for B2
With B4, the binding result in experiment [3] is reported as “binds”.

B5: anti-MMR Nanobody clone 1 (VHH)
VHH: QVQLQESGGGLVQPGGSLRLSCAASGNIFSINAIGWYRQAPGKQRELVATITLSGSTNYADSVKGRFSISRDNAKNTVYLQMNSLKPEDTAVYYCNANTYSDSDVYGYWGQGTQVTVSS
notes: Monovalent alpaca VHH against mouse MMR; Alexa-fluor labelled for flow cytometry and immunofluorescence; also called Anti-MMR Nb1; anti-MMR Nb clone 1
As to B5, the “fold higher apparent affinity compared to nanobody clone 3” value in experiment [1] stood at 8 fold. In experiment [4], the Kd was found to be 23.1 nM.

B6: NbhMMRm15.43 (VHH)
VHH: QVQLQESGGTLVQPGGSLRLSCAASGSTFSINNMGWYRQAPGKQRELVAGITGGNTHYADSVKGRFTISRDNAKNTMYLQMNGLKPEDTAVYYCNANWGAYWGQGTQVTVSS
notes: as for B2
For the molecule B6, the binding result in experiment [3] is on record as “binds”.

B7: bivalent anti-MMR Nanobody 1 with llama IgG2 hinge linker (VHH)
chain: QVQLQESGGGLVQPGGSLRLSCAASGNIFSINAIGWYRQAPGKQRELVATITLSGSTNYADSVKGRFSISRDNAKNTVYLQMNSLKPEDTAVYYCNANTYSDSDVYGYWGQGTQVTVSSAHHSEDPSSKAPKAPMAQVQLQESGGGLVQPGGSLRLSCAASGNIFSINAIGWYRQAPGKQRELVATITLSGSTNYADSVKGRFSISRDNAKNTVYLQMNSLKPEDTAVYYCNANTYSDSDVYGYWGQGTQVTVSSHHHHHH
notes: Two copies of Nb clone 1 in one chain joined by the llama IgG2 hinge linker, with a C-terminal His tag; also called biv MMR linker 2 g2c; MMR biv g2c
Turning to B7, in experiment [1], the “fold higher avidity” value worked out at 5 fold. In experiment [2], the Kd came out at 4.04 nM.

B8: anti-MMR Nanobody clone 3 (VHH)
VHH: QVQLQESGGGLVQAGGSLRLSCAASGRTFSRDAMGWFRQAPGKEREFVAGISWSGGSTYYADSVKGRFTISRDGAKNTVNLQMNSLKPEDTAVYYCAASSIYGSAVVDGLYDYWGQGTQVTVSS
notes: also called Anti-MMR Nb3; Nb clone 3
As for B8, in experiment [4], the Kd came out at 191 nM.

B9: NbhMMRm11.5 (VHH)
VHH: QVQLQESGGGLVQPGGSLMLSCAASGNIFTINRMGWYRQAPGKQRELVAAITSGGNTNYADSVKGRFTISRDNAKNTVYLQMNSLKPEDTAVYYCNAAIVTMTSPYSDYWGQGTQVTVSS
notes: as for B2
Regarding B9, in experiment [3], the binding result is reported as “binds”.

B10: bivalent anti-MMR Nanobody 1 with (Gly4Ser)3 linker (VHH)
chain: QVQLQESGGGLVQPGGSLRLSCAASGNIFSINAIGWYRQAPGKQRELVATITLSGSTNYADSVKGRFSISRDNAKNTVYLQMNSLKPEDTAVYYCNANTYSDSDVYGYWGQGTQVTVSSGGGGSGGGGSGGGGSQVQLQESGGGLVQPGGSLRLSCAASGNIFSINAIGWYRQAPGKQRELVATITLSGSTNYADSVKGRFSISRDNAKNTVYLQMNSLKPEDTAVYYCNANTYSDSDVYGYWGQGTQVTVSSHHHHHH
notes: Two copies of Nb clone 1 in one chain joined by a (G4S)3 linker, with a C-terminal His tag; also called biv MMR linker 1 GS; MMR biv (Gly4Ser)3
On to B10, for which the “fold higher avidity” value in experiment [1] worked out at 5 fold. Also, the Kd in experiment [2] came to 4.22 nM.
